Earlier results as cited in paper PMC11061240.
Read-outs that look alike come from different tables or passages of the source.

Key:
[1] = target: α-synuclein preformed fibrils (UniProt P37840)
FGL1 [2] = target: FGL1 (UniProt Q08830)
FGL1 [3] = target: FGL1 (UniProt Q08830); assay: BLI

Sequence of UniProt Q08830 (Q08830 23-312): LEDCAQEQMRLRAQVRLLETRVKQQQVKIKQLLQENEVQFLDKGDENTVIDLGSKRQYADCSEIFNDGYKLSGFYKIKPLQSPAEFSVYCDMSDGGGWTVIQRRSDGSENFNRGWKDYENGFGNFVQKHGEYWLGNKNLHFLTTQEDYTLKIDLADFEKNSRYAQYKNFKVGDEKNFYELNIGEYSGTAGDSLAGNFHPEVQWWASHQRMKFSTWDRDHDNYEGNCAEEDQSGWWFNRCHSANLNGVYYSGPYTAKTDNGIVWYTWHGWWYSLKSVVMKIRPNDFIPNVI

Row | Kd [1] | Kd (FGL1 [2]) | Kd (FGL1 [3]) | Substance
1 | 80 nM | 7000 nM | – | LAG3 (from UniProt P18627)
2 | – | – | 1.5 nM | LAG3 ECD (from UniProt Q61790)
